# What was measured:
# [1] = biological target: ATAD3A K135E (Flag-tagged); assay: non-reducing western blot of ATAD3A dimer (with or without β-ME), densitometry; settings: HEK293 cells transfected for 48 h; at least 6 independent experiments; parent: est. 1.0; read off a plot
# [2] = biological target: Myc-tagged ATAD3A; assay: co-immunoprecipitation (IP anti-Flag, WB anti-Myc), densitometry; settings: HEK293 cells transfected for 48 h; five independent experiments; parent: est. 1.0; read off a plot
# [3] = biological target: ATAD3A K135Q (Flag-tagged); assay: non-reducing western blot of ATAD3A dimer (with or without β-ME), densitometry; settings: HEK293 cells transfected for 48 h; at least 6 independent experiments; parent: est. 1.0; read off a plot
Substance,ratio to parent [1],ratio to parent [2],ratio to parent [3]
ATAD3A-Flag wildtype (in HEK293 cells) K135E,2.3,1.6,–
ATAD3A-Flag wildtype (in HEK293 cells) K135Q,–,0.58,0.8
